{"source": "patent US5786169", "experiment_in_all_cases": "yeast interaction trap (two-hybrid), LexAop-lacZ reporter pJK103 in EGY48, galactose medium", "key": {"[1]": {"molecular_target": "LexA-Cdc2 (Dm) bait protein (Drosophila) (UniProt P23572)"}, "[2]": {"molecular_target": "LexA-Cdc2 (Hs) bait protein (human) (UniProt P06493)"}, "[3]": {"molecular_target": "LexA-Cdc28 (Sc) bait protein (S. cerevisiae) (UniProt P00546)"}, "[4]": {"molecular_target": "LexA-Cdc2c (Dm) bait protein (Drosophila) (UniProt P23573)"}, "[5]": {"molecular_target": "LexA-Cdk2 (Hs) bait protein (human) (UniProt P24941)"}, "[6]": {"molecular_target": "LexA-Fus3 (Sc) bait protein (S. cerevisiae) (UniProt P16892)"}}}
{"substance": "tagged Cdi1 (activation-tagged prey fusion expressed from library plasmid pJG4-5)", "values": [{"measurement": "β-Galactosidase Activity (β-galactosidase units)", "setting": "[1]", "result": 40}, {"measurement": "β-Galactosidase Activity (β-galactosidase units)", "setting": "[2]", "result": 1580}, {"measurement": "β-Galactosidase Activity (β-galactosidase units)", "setting": "[3]", "result": 480}, {"measurement": "β-Galactosidase Activity (β-galactosidase units)", "setting": "[4]", "result": "> 2"}, {"measurement": "β-Galactosidase Activity (β-galactosidase units)", "setting": "[5]", "result": 440}, {"measurement": "β-Galactosidase Activity (β-galactosidase units)", "setting": "[6]", "result": "> 2"}]}
